The values that follow are results of earlier work, collected in paper PMC5603210.

In this data set the target is von Willebrand factor (Homo sapiens) (UniProt P04275).

Usually Kd stands for the free concentration of one partner at which half of the binding sites on the other are occupied at equilibrium, for simple one-to-one binding. As for Factor VIII (from UniProt P00451), the Kd was 500 pM.
